According to US20090263836A1:
“And” between values parts separate entries of the source, which are not always exact repeats. Identical values can stand only once. Like-named read-outs stand apart in the source and are kept apart here.

Key:
[1] = biological target: BoNT/A binding domain (rBoNT/A-HC) (Clostridium botulinum)
[2] = biological target: BoNT/A binding domain (rBoNT/A-HC) (Clostridium botulinum); remark: listed apart in the source

Sequence of BoNT/A binding domain (rBoNT/A-HC) (Clostridium botulinum) (P0DPI1 873-1296): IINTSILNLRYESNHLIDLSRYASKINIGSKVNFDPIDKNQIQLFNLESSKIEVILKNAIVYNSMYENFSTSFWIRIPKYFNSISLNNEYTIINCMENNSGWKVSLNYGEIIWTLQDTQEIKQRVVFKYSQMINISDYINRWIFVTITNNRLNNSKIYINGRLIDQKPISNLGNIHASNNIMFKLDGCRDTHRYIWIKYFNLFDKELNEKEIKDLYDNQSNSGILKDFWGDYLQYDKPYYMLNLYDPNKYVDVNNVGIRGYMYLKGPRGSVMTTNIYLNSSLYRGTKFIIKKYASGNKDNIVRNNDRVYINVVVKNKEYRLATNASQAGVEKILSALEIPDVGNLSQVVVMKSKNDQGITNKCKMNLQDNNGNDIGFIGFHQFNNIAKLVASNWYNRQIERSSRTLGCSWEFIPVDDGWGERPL

| Substance | RUMax [1] | Percentage increase [1] | Percentage increase [2] | RUMax [2] |
| --- | --- | --- | --- | --- |
| FGFR1 (transfected, pReceiver-M02/FGFR1) (receptor) | 480 RU and 470 RU and 330 RU |  |  |  |
| FGFR3 (transfected, pReceiver-M02/FGFR3) (receptor) | 510 RU and 450 RU | 46% and 38% and 40% | 73% | 225 RU and 110 RU |
| SV2C (transfected, pReceiver-M02/SV2C) (receptor) |  |  | 8% and 6% | 140 RU and 85 RU |
| FGFR2 (transfected, pReceiver-M02/FGFR2) (receptor) | 510 RU and 460 RU and 450 RU | 46% and 24% and 40% |  |  |
| FGFR3 and SV2C co-transfected |  |  | 27% and 13% | 165 RU and 90 RU |
